Two substances from article doi:10.1101/620385 can be followed below.

The target of experiment [1] is nucleosome core particle with histone H3 phosphorylated at Thr3 (human | Xenopus laevis) (UniProt P84233). Description: SPR. A general note: Surface plasmon resonance follows binding to a sensor surface in real time, without labels.
Experiment [2] addresses unmodified nucleosome core particle (human | Xenopus laevis). Description: SPR.

The Kd is the concentration at which binding is half-saturated. Read a low Kd as higher affinity. For “CPC localisation module (Borealin-Survivin-INCENP 1-58) (from UniProt Q53HL2;O15392;Q9NQS7) (complex)”, the Kd worked out at 103 nM in experiment [1] and 295 nM in experiment [2].

Take “CPC localisation module containing Borealin 10-end (from UniProt Q53HL2;O15392;Q9NQS7) (complex)”: the fold reduction in binding affinity against CPC LM in experiment [1] and in experiment [2] was 3 fold each time.
